Molecular target: T1, GST-PDZK1 tail (human, UniProt Q5T2W1 459-519)
T1 sequence (looked up): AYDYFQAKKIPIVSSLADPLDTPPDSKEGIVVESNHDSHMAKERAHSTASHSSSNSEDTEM
Test: pull-down

B1: EBP50 (1-354) (domain or fragment, UniProt O14745 1-354, looked up)
chain: MSADAAAGAPLPRLCCLEKGPNGYGFHLHGEKGKLGQYIRLVEPGSPAEKAGLLAGDRLVEVNGENVEKETHQQVVSRIRAALNAVRLLVVDPETDEQLQKLGVQVREELLRAQEAPGQAEPPAAAEVQGAGNENEPREADKSHPEQRELRPRLCTMKKGPSGYGFNLHSDKSKPGQFIRSVDPDSPAEASGLRAQDRIVEVNGVCMEGKQHGDVVSAIRAGGDETKLLVVDRETDEFFKKCRVIPSQEHLNGPLPVPFTNGEIQKENSREALAEAALESPRPALVRSASSDTSEELNSQDSPPKQDSTAPSSTSSSDPILDFNISLAMAKERAHQKRSSKRAPQMDWSKKNEL
- amount precipitated relative to full-length EBP50 (1-358): 2.4 times

Reference: paper PMC2861611 (Molecular Biology of the Cell, 2010)
